Measured values: the domain aggregation screens of Martell et al. (2025)

assay: soluble fraction after stress (log2 fold change); higher = more stays soluble; pooled small domains, quantitative proteomics; details: stress: 50 degC
In short: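 Each library was heated to 50°C as a stress step. The libraries, made up of small protein domains, were pooled and analysed at high throughput by quantitative proteomics. The reported value is the base-two logarithm of the fold change in each protein's soluble amount after stress, taken as a measure of aggregation propensity. The higher the value, the more protein stays in solution.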

| Sequence | soluble fraction (log2) |
| --- | --- |
| HMTQGRVTGDGVNVRSQPNTDSAILTRVSTGKVVELISLKDNWYNVVVNGTKGYIRADYVSPYDG | -0.0101 |
| HMSPLALLTPRELDILRAMTAGASNKEIARQFAIAETTVKIHVQHILRKLDVTTRVHAAVMASESGL | -2.66 |
| HMSVGDLPPEAREIWKLLDGRELSLDLLAEETGRETGALLSTLMMLEMKLLVEHGSDMVYRRIPRR | -1.78 |
| HMNAEQLAQVRRQKIGFIFQDFRLFPEYTVRDNILIPFYLDHRAPDEQMLHKLTGILGIAGKLHSRPAQL | -0.0698 |
| HMNVDALVGQRGRVTQTFDPGLRLGRVAVGGDDWRAETTTDQPLREGDLVEVVSVESNTLIVRPIA | -0.0828 |
| HMFPASQPVPTDLNQIVRAGLEVFSGRLEGIDVRVSLEPELPRVNVDPEHFKRIVVNLVDNAAEAMQNS | -0.0549 |
| HMFSSVSVPAELSNQRFDKVVAELTPDLSRSKIKQLILLGKVLLNGEVTPPKQKVETGDEIEIFYTRQIE | -0.63 |
| HMEGDKEIPNVIGKSINDAKKILEQAGLKLGEVKKVNDSSVAKNVVLSTNPNAGTKVSAGDAVSITVAEG | 0.0251 |
| HMFEARNTTFSEDGKTITETYGVKRIETEFVSDSTIVQKLYDNDVLTKTKTITFSADGLSIKEDV | 0.0154 |
| HMRNERDRQLYAAMEKLKAEYREALYLVYFENMSYRDAAAVMAQTEKQISNLVYRGKQSLKTILEQEGF | -2.65 |
| HMNVNVSFTQLRHKAEHAIQAKNWSEARNLLTLATLMRPTHRNVARRLKAVEQRNRLFRRLLLILTHRKV | -0.295 |
| HMNIIMLGEFIKEQRIKRKMTQEYLASELGISRPTYSQIELGTRELTIPEARKMAAIFNISLEDFLAEKE | -0.604 |
| HMDGFAEFWSAYPKKVGKGAAEASWRKHRPPLQTVLDAVKRQAESDQWRKDGGQFIPNPATWLNQKRWEDD | 0.0948 |
| HMLAVPADFAEKLQSLRSQLASDDLDASDAFGRLQPFIKALYPAQLEALRKAVDDFDFVEATRLIDQLPQ | -0.232 |
| HMKYSYAELTKLQEQIAQDRNAPLTVPNALGIGLDERNNVIEITVNIADEAAAKAYYLQKYGDRISLKTTD | 0.117 |
| HMDALTLSIDAQGALYWNGQPVSRELAAQRFVEAAAQRPQPELHLRADQNVAYRHVAMTLADASRAGLTR | -0.0244 |
| HMLKFPIGTHVGKKKPSANLSLPNKHGVVIGHGERRNAKGAIMRFYIVETTHSSRPEEWAPGITYPL | -2.5 |
| HMLTSAQLAEIRQAVRAGQASVVEDLLKNGASPNFRMENGDTGFTYAVRADTPQVAEALLKSGKL | -0.0678 |
| HMGYDVAEVKFRLIKLLRDSKIGISGVEISERLGINRVTMTKYLNIFSAEGVIGEKNIGNVNLWFVYEGIE | -1.68 |

| Sequence | soluble fraction (log2) |
| --- | --- |
| HMAKPVKSPLPGSVIKVAVKVGQQIKRGDLLLTLESMKMENSILAEKDGVVKNIHVQAGQSVMQDDLLLDI | 0.0752 |
| HMENQGEDMRQQVKALVNADKTNITKLATATGYSRSTISMYLAGNYKGDVEAVERRLEEYMKTQG | -0.0136 |
| HMIKVAANESNRSDVLEIVRLFRVRVVDVNPESLTIEATGAEGKIDALLGLLEHYGVIELVRSGAVAVT | -0.435 |
| HMFMMVAGHLQIKNEKYYMVLELRTEQGERKTKWIGTGLAVKGNKRRAEAMLEETRTKYLSPV | -1.95 |
| HMKLKHANGNHPLTQQEKQNMIEEAAKHYGDYMTALGFDWKQDPNSSDTPMRVAKAFVNDLAEGVY | 0.0454 |
| HMFNPEQDPKQLTGRERAVADLIGLGANNAEIAIRLSMSERTVKAHLTSIFQQLNVRDRVQLALVMNQL | -0.585 |
| HMVIDFYDPQTKVIHEIKKSSAKEEAHVWQVKYYIYLFEKEEIMGVKGVLEYPLLREIVSVNF | 0.187 |
| HMLRVGASVTANGKYWYDSYGSKPFGTANNLSTTVTRIVPGNPYPIHIGSYGWLQESQIQIT | -1.03 |
| HMLTQEEITRRRGEILTAAMGVILRKGFLETSMREIAEAAGVGKSTLYDYFPSKDEIMIAYVVD | -0.938 |
| HMAPRASDALTERELDVLRVVADGASVAEAAEMLVVSRETVKKHLGNIYAKLGVHSKMQAVALLREEGV | -0.147 |
| HMDFDVELTSAGTAKVKVIKAVREATGLGLKEAKDLVDNAPSIVKEGLDEAAANDLKAALEETGASVTL | 0.117 |
| HMEVSEGEIREKVESVFSSNPRQAYNYKQISKKLNINDKSERQIVWDVLRKLAGSGKIQEVEHGRFRARAE | 0.122 |
| HMLPQGKGTAMWLADHLAAASVTLDAGARKLLEDTLGEDMSRLPGVLRVLEATFGSDAGRLSAEDIEPFL | 0.31 |
| HMTYTPRAGSLASQVIGFFRHNPDEELLLDDITDKFDATRGNIHTLLAEAVRFKLLARYRNDDGDYVYKPG | -2.97 |
| HMDAVDKDGNHMTFKKWSEQLQEAFHALELYDTTRAKQILSELVKFQVDSDITKSLKAIITNIDDMMA | -0.338 |
| HMNVEVDSIGDDDFLVKVSAGTSTEHRVTLTDAYWEQIWSSSLPKKEIISLSFAFLLEREPNSSIMRT | 0.0604 |
| HMHMSLTEKYKELTDLAVSAGVQNLNVREQDGVLYVDGDASGAVKQQLWDTYGKLDPDYTSGDLVLNI | 0.0615 |
| HMHANSDVEQLMQMGIQRLNFQRYSDALLIFNQIIENFPDYAEAWNKRATLHYLLGNLDKSIADIEQTLE | -2.54 |
| HMQPAGEGAILRYLSSGAVKGIGPVMAREIVRRFGTDTFRVMEQEPEKLLKVKGITEQRLQTIMESYQD | -0.0857 |
